Assay results: article PMC8637272

System: enolase (ENO) (Mycoplasma gallisepticum S6)
Test: EMSA
Details: EMSA: 20 mM carbonate buffer pH 9.8, 6% glycerol, 2.5 pmol FAM-DNA, 10 min 37 C, 6% acrylamide gel at 10 C. AFM: 20 mM Tris-HCl pH 7.5 (Methods; Fig 6 legend …)

Substance	Kd (Hill n 3.1 +/- 0.6) [µM]	Kd (Hill n 2.7 +/- 0.8) [µM]
Peno	1	
Pgapd		1.1
